Starred links: 1 amine or outer side, 2 acyl side, 3 side chain; linkers in the order of their positions; H or OH if unused. Positions of bridges follow the written chain, without caps; N, C: chain ends. Non-standard residues stand in square brackets, D forms with d. Trp(7-nPr) = CCCc1cccc2c(C[C@H](N[*:1])C(=O)[*:2])c[nH]c12; Trp(7-Me) = Cc1cccc2c(C[C@H](N)C(=O)O)c[nH]c12; Trp(1-Me) = Cn1cc(C[C@H](N)C(=O)O)c2ccccc21; 2Nal = N[C@@H](Cc1ccc2ccccc2c1)C(=O)O; AEF = NCCOc1ccc(C[C@H](N)C(=O)O)cc1; Cit = NC(=O)NCCC[C@H](N)C(=O)O; Pen = CC(C)(S)[C@H](N)C(=O)O; αMeK = C[C@](N)(CCCCN)C(=O)O; βAla = NCCC(=O)O
T1: interleukin-23 receptor (IL-23R) (human, UniProt Q5VWK5 24-629)
T1 sequence (looked up): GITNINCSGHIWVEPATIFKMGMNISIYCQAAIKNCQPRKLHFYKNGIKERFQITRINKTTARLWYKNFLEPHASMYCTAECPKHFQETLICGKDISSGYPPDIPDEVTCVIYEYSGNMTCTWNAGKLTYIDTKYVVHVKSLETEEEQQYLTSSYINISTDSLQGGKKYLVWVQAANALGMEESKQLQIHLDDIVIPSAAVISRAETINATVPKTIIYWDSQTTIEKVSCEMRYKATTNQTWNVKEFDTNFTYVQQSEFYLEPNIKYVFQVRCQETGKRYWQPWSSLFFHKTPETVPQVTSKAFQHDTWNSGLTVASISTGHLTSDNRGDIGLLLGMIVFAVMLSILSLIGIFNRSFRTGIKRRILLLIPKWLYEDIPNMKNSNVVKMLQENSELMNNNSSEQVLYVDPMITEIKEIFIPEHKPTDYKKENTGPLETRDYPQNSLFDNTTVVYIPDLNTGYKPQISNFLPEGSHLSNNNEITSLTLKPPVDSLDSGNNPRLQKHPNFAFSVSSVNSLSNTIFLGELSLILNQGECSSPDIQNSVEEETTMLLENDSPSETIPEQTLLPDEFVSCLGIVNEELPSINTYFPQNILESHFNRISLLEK

B1: Peptide of SEQ ID NO: 262 (peptide)
peptide: Ac-[Pen]NT[Trp(7-Me)][Cit][Pen][AEF][2Nal][αMeK]K(Ac)NT-NH2
modifications: disulfide 1-6
SMILES: CC(=O)NCCCC[C@H](NC(=O)[C@](C)(CCCCN)NC(=O)[C@H](Cc1ccc2ccccc2c1)NC(=O)[C@H](Cc1ccc(OCCN)cc1)NC(=O)[C@H]1NC(=O)[C@H](CCCNC(N)=O)NC(=O)[C@H](Cc2c[nH]c3c(C)cccc23)NC(=O)[C@H]([C@@H](C)O)NC(=O)[C@H](CC(N)=O)NC(=O)[C@@H](NC(C)=O)C(C)(C)SSC1(C)C)C(=O)N[C@@H](CC(N)=O)C(=O)N[C@H](C(N)=O)[C@@H](C)O
B2: Peptide of SEQ ID NO: 276 (peptide)
peptide: XNTXQXXXXKNX
modifications: Ac-[Pen]-N-T-[W(7-Me)]-Q-[Pen]-Phe[4-(2-aminoethoxy)]-[2-Nal]-[DiethylGly]-[Lys(Ac)]-N-[bA]-NH2; Pen-Pen disulfide
B3: Peptide of SEQ ID NO: 255 (peptide)
peptide: XNTXKXXXXKNI
modifications: Ac-[Pen]-NT-[W(7-Me)]-[Lys(Ac)]-[Pen]-Phe[4-(2-aminoethoxy)]-[2-Nal]-[a-MeLys]-[Lys(Ac)]-N-I-NH2; Pen-Pen disulfide
B4: Peptide of SEQ ID NO: 254 (peptide)
peptide: XNTXKXXXXKNP
modifications: Ac-[Pen]-NT-[W(7-Me)]-[Lys(Ac)]-[Pen]-Phe[4-(2-aminoethoxy)]-[2-Nal]-[a-MeLys]-[Lys(Ac)]-N-[(D)Pro]-NH2; Pen-Pen disulfide
B5: Peptide of SEQ ID NO: 282 (peptide)
peptide: XNTXQXXXXENX
modifications: Ac-[Pen]-N-T-[W(7-Me)]-Q-[Pen]-Phe[4-(2-aminoethoxy)]-[2-Nal]-[a-MeLys]-E-N-[bA]-NH2; Pen-Pen disulfide
B6: Peptide of SEQ ID NO: 272 (peptide)
peptide: XNTXKXXXXKHX
modifications: Ac-[Pen]-N-T-[W(7-Me)]-[Lys(Ac)]-[Pen]-Phe[4-(2-aminoethoxy)]-[2-Nal]-[a-MeLys]-[Lys(Ac)]-H-[bA]-NH2; Pen-Pen disulfide
B7: Peptide of SEQ ID NO: 268 (peptide)
peptide: Ac-[Pen]NT[Trp(7-Me)][Cit][Pen][AEF][2Nal][αMeK]K(Ac)[βAla][βAla]-NH2
modifications: disulfide 1-6
SMILES: CC(=O)NCCCC[C@H](NC(=O)[C@](C)(CCCCN)NC(=O)[C@H](Cc1ccc2ccccc2c1)NC(=O)[C@H](Cc1ccc(OCCN)cc1)NC(=O)[C@H]1NC(=O)[C@H](CCCNC(N)=O)NC(=O)[C@H](Cc2c[nH]c3c(C)cccc23)NC(=O)[C@H]([C@@H](C)O)NC(=O)[C@H](CC(N)=O)NC(=O)[C@@H](NC(C)=O)C(C)(C)SSC1(C)C)C(=O)NCCC(=O)NCCC(N)=O
B8: Peptide of SEQ ID NO: 285 (peptide)
peptide: Ac-[Pen]NT[Trp(7-nPr)]K(Ac)[Pen][AEF][2Nal][αMeK]K(Ac)N[dL]-NH2
modifications: disulfide 1-6
SMILES: CCCc1cccc2c(C[C@@H]3NC(=O)[C@H]([C@@H](C)O)NC(=O)[C@H](CC(N)=O)NC(=O)[C@@H](NC(C)=O)C(C)(C)SSC(C)(C)[C@@H](C(=O)N[C@@H](Cc4ccc(OCCN)cc4)C(=O)N[C@@H](Cc4ccc5ccccc5c4)C(=O)N[C@@](C)(CCCCN)C(=O)N[C@@H](CCCCNC(C)=O)C(=O)N[C@@H](CC(N)=O)C(=O)N[C@H](CC(C)C)C(N)=O)NC(=O)[C@H](CCCCNC(C)=O)NC3=O)c[nH]c12
B9: Peptide of SEQ ID NO: 257 (peptide)
peptide: Ac-[Pen]NT[Trp(7-Me)][Cit][Pen][AEF][2Nal][αMeK]K(Ac)N[dF]-NH2
modifications: disulfide 1-6
SMILES: CC(=O)NCCCC[C@H](NC(=O)[C@](C)(CCCCN)NC(=O)[C@H](Cc1ccc2ccccc2c1)NC(=O)[C@H](Cc1ccc(OCCN)cc1)NC(=O)[C@H]1NC(=O)[C@H](CCCNC(N)=O)NC(=O)[C@H](Cc2c[nH]c3c(C)cccc23)NC(=O)[C@H]([C@@H](C)O)NC(=O)[C@H](CC(N)=O)NC(=O)[C@@H](NC(C)=O)C(C)(C)SSC1(C)C)C(=O)N[C@@H](CC(N)=O)C(=O)N[C@H](Cc1ccccc1)C(N)=O
B10: Peptide of SEQ ID NO: 266 (peptide)
peptide: Ac-[Pen]NT[Trp(7-Me)][Cit][Pen][AEF][2Nal][αMeK]K(Ac)NY-NH2
modifications: disulfide 1-6
SMILES: CC(=O)NCCCC[C@H](NC(=O)[C@](C)(CCCCN)NC(=O)[C@H](Cc1ccc2ccccc2c1)NC(=O)[C@H](Cc1ccc(OCCN)cc1)NC(=O)[C@H]1NC(=O)[C@H](CCCNC(N)=O)NC(=O)[C@H](Cc2c[nH]c3c(C)cccc23)NC(=O)[C@H]([C@@H](C)O)NC(=O)[C@H](CC(N)=O)NC(=O)[C@@H](NC(C)=O)C(C)(C)SSC1(C)C)C(=O)N[C@@H](CC(N)=O)C(=O)N[C@@H](Cc1ccc(O)cc1)C(N)=O
B11: Peptide of SEQ ID NO: 280 (peptide)
peptide: Ac-[Pen]NTX[Cit][Pen][AEF][2Nal][αMeK]K(Ac)[βAla][βAla]-NH2
modifications: disulfide 1-6; not fully specified (residue 4); printed as Ac-[Pen]-N-T-[W(1-Me)]-[Cit]-[Pen]-Phe[4-(2-aminoethoxy)]-[2-Nal]-[a-MeLys]-[Lys(Ac)]-[bA]-[bA]-NH2, Pen-Pen disulfide
B12: Peptide of SEQ ID NO: 271 (peptide)
peptide: XNTXKXXXXKSX
modifications: Ac-[Pen]-N-T-[W(7-Me)]-[Lys(Ac)]-[Pen]-Phe[4-(2-aminoethoxy)]-[2-Nal]-[a-MeLys]-[Lys(Ac)]-S-[bA]-NH2; Pen-Pen disulfide
B13: Peptide of SEQ ID NO: 278 (peptide)
peptide: XNTXQXXXXKNX
modifications: Ac-[Pen]-N-T-[W(7-Me)]-Q-[Pen]-Phe[4-(2-aminoethoxy)]-[2-Nal]-[a-MeOrn]-[Lys(Ac)]-N-[bA]-NH2; Pen-Pen disulfide

Molecular target: T1, interleukin-23 receptor (IL-23R)
Experiment: cell-based or functional assay

| pStat3 HTRF IC50 [nM] | Binder |
| --- | --- |
| 0.996 | B1 |
| 0.564 | B2 |
| 2.5 | B3 |
| 3.65 | B4 |
| 1.37 | B5 |
| 7.13 | B6 |
| 3.24 | B7 |
| 0.849 | B8 |
| 1.61 | Ac-[Pen]NT[Trp(7-i-Pr)]K(Ac)[Pen][AEF][2Nal][αMeK]K(Ac)N[dL]-NH2 (disulfide 1-6 (inferred)) [Peptide of SEQ ID NO: 286] |
| 3.88 | B9 |
| 2.78 | B10 |
| 17.1 | B11 |
| 1.91 | B12 |
| 0.849 | B13 |
| 4.52 | Ac-[Pen]NT[Trp(7-Me)]Q[Pen][AEF][Trp(1-Me)][αMeK]K(Ac)N[βAla]-NH2 (disulfide 1-6) [Peptide of SEQ ID NO: 283] |

— patent publication US20220041658A1 (PROTAGONIST THERAPEUTICS, published 2022)
